Source: PMC3687597 (Clinical and Developmental Immunology, 2013)

Molecular target: T1, anthrax lethal factor (LF) (Bacillus anthracis, strain , UniProt P15917)
T1 construct: source: purified; produced in Dr. Nick Duesbery's lab at Van Andel Research Institute
Assay: ELISA
Conditions: both partners purified

T1 sequence (P15917 34-809): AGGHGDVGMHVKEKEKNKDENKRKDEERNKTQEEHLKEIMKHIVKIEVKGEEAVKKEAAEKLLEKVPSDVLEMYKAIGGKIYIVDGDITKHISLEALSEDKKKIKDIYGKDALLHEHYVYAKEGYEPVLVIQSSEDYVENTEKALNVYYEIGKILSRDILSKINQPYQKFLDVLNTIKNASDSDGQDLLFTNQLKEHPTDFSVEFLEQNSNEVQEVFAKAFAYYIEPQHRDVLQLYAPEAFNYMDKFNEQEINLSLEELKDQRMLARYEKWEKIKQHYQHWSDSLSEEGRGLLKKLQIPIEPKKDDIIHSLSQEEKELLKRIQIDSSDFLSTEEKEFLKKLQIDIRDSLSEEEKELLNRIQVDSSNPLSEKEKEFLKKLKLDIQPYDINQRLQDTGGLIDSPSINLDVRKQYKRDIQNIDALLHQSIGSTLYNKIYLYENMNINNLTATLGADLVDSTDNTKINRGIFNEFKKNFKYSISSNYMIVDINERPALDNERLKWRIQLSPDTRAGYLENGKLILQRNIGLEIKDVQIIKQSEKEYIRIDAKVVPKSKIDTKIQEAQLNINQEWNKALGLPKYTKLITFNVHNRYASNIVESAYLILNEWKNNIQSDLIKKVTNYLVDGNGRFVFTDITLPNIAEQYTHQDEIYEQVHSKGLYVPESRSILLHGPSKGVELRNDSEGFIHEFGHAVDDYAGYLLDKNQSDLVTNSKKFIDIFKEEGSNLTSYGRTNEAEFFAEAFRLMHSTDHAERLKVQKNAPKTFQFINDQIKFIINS

B1:  (Fab, V domains shown)
VH: EVQLQQSGAELVKPGASVKLSCTASGFNIKDSYMHWVKQRPEQGLEWIGRIDPANGNTKYDPKFQGKATITVDTSSNTAYLQLSSLTSEDTAVYYCTRLDYWGQGTTLTVS
VL: ENVLTQSPAIMSASLGEKVTMSCRASSSVNYMYWYQQKSDASPKLWIYSTSNLAPGVPARFSGSGSGNSYSLTISSMEGEDAATYYCQQFTSSPSALTFGAGTKLEIK
notes: also called LF8-Fab; chimeric anti-LF Fab
- Ka: 3.46e+07 M⁻¹
